Measured values as given in patent US20200140551A1 (GlaxoSmithKline, published 2020).

Tests used:
[1] = target: T1, human ICOS on human T cells (human, UniProt Q9Y6W8 21-167); experiment: flow cytometry, activated human CD4 T cells, percent FITC positive, donor 1124F36
T1 construct: endogenous receptor on primary cells; also called ICOS on CD4+ and CD8+ T cells of healthy human donors
T1 sequence: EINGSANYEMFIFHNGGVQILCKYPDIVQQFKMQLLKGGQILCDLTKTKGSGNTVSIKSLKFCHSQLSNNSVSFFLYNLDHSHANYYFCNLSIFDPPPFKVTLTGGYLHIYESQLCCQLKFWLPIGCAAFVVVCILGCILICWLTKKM
Protocol: Binding of H2L5 hIgG4PE was assessed in both naive and activated CD3+ T cells.
Either naive and/or activated CD3+ T cells were re-suspended in PBS with 0.1% BSA (FACS Buffer) containing Human FcR Blocking Solution at 2×10⁶ cells/mL (5 μl FcR Blocking Solution+[…] FACS Buffer per 1 mL). At a concentration of 2×10⁵ cells/well, 100 μl cells were placed into 2 mL 96 well Assay Blocks and incubated at room temperature for 15 minutes. During the incubation, a titration of the binding antibodies, anti-ICOS (H2L5 hIgG4PE) or IgG4 Isotype Control antibody was prepared as a 2× concentration. […] Following the binding incubation, cells were washed twice in 1 mL of FACS buffer, centrifuging at 400×g for 5 minutes at room temperature.
Data acquisition and compensation were performed on BD FACS instruments, LSR Fortessa X-20 or FACS Canto II using BD Diva (ver. 8.0) software. Data analysis employed Flow Jo software (ver.10.0.8r1). Results are reported as both MFI (Median Fluorescence Intensity) and Percent of cells positive for human IgG kappa light chain FITC staining out of the total live cells or appropriate parent population. EC50s were determined using Graphpad Prism 5 software (ver. 5.04) with non-linear regression of transformed data (X=(log(X)) using a variable slope with 4 parameters (log(Agonist) vs. response—Variable slope).

human FcγR IIIa F158 = target: T2, human FcγR IIIa F158 (human, UniProt P08637 17-208); experiment: affinity to human Fcγ receptors (Table 6; NB = no binding); method not described
T2 construct: allotype with Phe at position 158 as printed
T2 sequence (P08637 17-208 limits assumed): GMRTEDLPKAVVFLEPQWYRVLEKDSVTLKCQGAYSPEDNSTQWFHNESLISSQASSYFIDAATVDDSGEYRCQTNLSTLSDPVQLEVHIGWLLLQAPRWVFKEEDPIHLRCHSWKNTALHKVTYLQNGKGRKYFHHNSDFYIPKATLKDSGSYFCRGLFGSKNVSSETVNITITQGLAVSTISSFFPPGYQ

B1: H2L5 hIgG4PE (antibody)
heavy: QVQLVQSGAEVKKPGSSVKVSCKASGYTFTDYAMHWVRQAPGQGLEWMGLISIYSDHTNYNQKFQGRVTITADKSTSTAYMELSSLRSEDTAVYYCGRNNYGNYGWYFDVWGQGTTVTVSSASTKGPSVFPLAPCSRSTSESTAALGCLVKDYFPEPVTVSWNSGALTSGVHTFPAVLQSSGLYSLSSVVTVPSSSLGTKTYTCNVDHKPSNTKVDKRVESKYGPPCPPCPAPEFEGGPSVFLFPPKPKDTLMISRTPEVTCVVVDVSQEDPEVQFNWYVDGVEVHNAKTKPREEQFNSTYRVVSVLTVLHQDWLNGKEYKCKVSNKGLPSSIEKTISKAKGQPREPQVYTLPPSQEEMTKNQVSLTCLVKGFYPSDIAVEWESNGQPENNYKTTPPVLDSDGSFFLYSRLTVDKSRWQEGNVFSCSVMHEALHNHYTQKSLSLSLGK
light: EIVLTQSPATLSLSPGERATLSCSASSSVSYMHWYQQKPGQAPRLLIYDTSKLASGIPARFSGSGSGTDYTLTISSLEPEDFAVYYCFQGSGYPYTFGQGTKLEIKRTVAAPSVFIFPPSDEQLKSGTASVVCLLNNFYPREAKVQWKVDNALQSGNSQESVTEQDSKDSTYSLSSTLTLSKADYEKHKVYACEVTHQGLSSPVTKSFNRGEC
notes: also called 422 H2L5 hIgG4PE; H2L5 IgG4PE; copies: 2 + 2
EC50 [1]: 0.45 µg/mL | binding result (human FcγR IIIa F158): no binding
